From patent US20170275666A1, “Methods for Preparing Rebaudioside I and Uses” (The Coca-Cola Company, priority 2014, published 2017)
Substitutions are numbered along the chain they refer to.

B1: UGT76G1var8: UGT76G1 variant, mutations E224A_Q266S_Q342E (protein, UniProt Q6VAB4 1-458, looked up, variant E224A Q266S Q342E)
UDP-glycosyltransferase 76G1: MENKTETTVRRRRRIILFPVPFQGHINPILQLANVLYSKGFSITIFHTNFNKPKTSNYPHFTFRFILDNDPQDERISNLPTHGPLAGMRIPIINEHGADELRRELELLMLASEEDEEVSCLITDALWYFAQSVADSLNLRRLVLMTSSLFNFHAHVSLPQFDELGYLDPDDKTRLEEQASGFPMLKVKDIKSAYSNWQILKEILGKMIKQTKASSGVIWNSFKALEESELETVIREIPAPSFLIPLPKHLTASSSSLLDHDRTVFSWLDQQPPSSVLYVSFGSTSEVDEKDFLEIARGLVDSKQSFLWVVRPGFVKGSTWVEPLPDGFLGERGRIVKWVPQEEVLAHGAIGAFWTHSGWNSTLESVCEGVPMIFSDFGLDQPLNARYMSDVLKVGVYLENGWERGEIANAIRRVMVDEEGEYIRQNARVLKQKADVSLMKGGSSYESLESLVSYISSL
B2: UGT76G1var19: UGT76G1 variant, mutations E224D_E229A_Q432E (protein, UniProt Q6VAB4 1-458, looked up, variant E224D E229A Q432E)
UDP-glycosyltransferase 76G1: B1 UDP-glycosyltransferase 76G1 with A224D, E229A, S266Q, E342Q, Q432E
B3: UGT76G1var14: UGT76G1 variant, mutations A239I_F265I_V396F (protein, UniProt Q6VAB4 1-458, looked up, variant A239I F265I V396F)
UDP-glycosyltransferase 76G1: B1 UDP-glycosyltransferase 76G1 with A224E, A239I, F265I, S266Q, E342Q, V396F
B4: UGT76G1var20: UGT76G1 variant, mutations S375M_K393G_Y397E (protein, UniProt Q6VAB4 1-458, looked up, variant S375M K393G Y397E)
UDP-glycosyltransferase 76G1: B1 UDP-glycosyltransferase 76G1 with A224E, S266Q, E342Q, S375M, K393G, Y397E
B5: UGT76G1var17: UGT76G1 variant, mutations F265L_Q266E_Q342K (protein, UniProt Q6VAB4 1-458, looked up, variant F265L Q266E Q342K)
UDP-glycosyltransferase 76G1: B1 UDP-glycosyltransferase 76G1 with A224E, F265L, S266E, E342K
B6: UGT76G1var10: UGT76G1 variant, mutations A33G_L246F_Q342E (protein, UniProt Q6VAB4 1-458, looked up, variant A33G L246F Q342E)
UDP-glycosyltransferase 76G1: B1 UDP-glycosyltransferase 76G1 with A33G, A224E, L246F, S266Q
B7: UGT76G1var25: UGT76G1 variant, mutations T284L_Q342K_Y397Q (protein, UniProt Q6VAB4 1-458, looked up, variant T284L Q342K Y397Q)
UDP-glycosyltransferase 76G1: B1 UDP-glycosyltransferase 76G1 with A224E, S266Q, T284L, E342K, Y397Q
B8: UGT76G1var23: UGT76G1 variant, mutations T263S_G348P_A352G (protein, UniProt Q6VAB4 1-458, looked up, variant T263S G348P A352G)
UDP-glycosyltransferase 76G1: B1 UDP-glycosyltransferase 76G1 with A224E, T263S, S266Q, E342Q, G348P, A352G
B9: UGT76G1var13: UGT76G1 variant, mutations L243A_S357C_A385T (protein, UniProt Q6VAB4 1-458, looked up, variant L243A S357C A385T)
UDP-glycosyltransferase 76G1: B1 UDP-glycosyltransferase 76G1 with A224E, L243A, S266Q, E342Q, S357C, A385T
B10: UGT76G1var16: UGT76G1 variant, mutations F265I_P272A_I335V (protein, UniProt Q6VAB4 1-458, looked up, variant F265I P272A I335V)
UDP-glycosyltransferase 76G1: B1 UDP-glycosyltransferase 76G1 with A224E, F265I, S266Q, P272A, I335V, E342Q
B11: UGT76G1var18: UGT76G1 variant, mutations L243P_S274G_N409R (protein, UniProt Q6VAB4 1-458, looked up, variant L243P S274G N409R)
UDP-glycosyltransferase 76G1: B1 UDP-glycosyltransferase 76G1 with A224E, L243P, S266Q, S274G, E342Q, N409R
B12: UGT76G1var12: UGT76G1 variant, mutations L243P_K303G_A352G (protein, UniProt Q6VAB4 1-458, looked up, variant L243P K303G A352G)
UDP-glycosyltransferase 76G1: B1 UDP-glycosyltransferase 76G1 with A224E, L243P, S266Q, K303G, E342Q, A352G
B13: UGT76G1var21: UGT76G1 variant, mutations A239V_V300A_K303G (protein, UniProt Q6VAB4 1-458, looked up, variant A239V V300A K303G)
UDP-glycosyltransferase 76G1: B1 UDP-glycosyltransferase 76G1 with A224E, A239V, S266Q, V300A, K303G, E342Q
B14: UGT76G1var22: UGT76G1 variant, mutations E231A_V310I_R334K (protein, UniProt Q6VAB4 1-458, looked up, variant E231A V310I R334K)
UDP-glycosyltransferase 76G1: B1 UDP-glycosyltransferase 76G1 with A224E, E231A, S266Q, V310I, R334K, E342Q
B15: UGT76G1var9: UGT76G1 variant, mutations E231A_D301N_G348P (protein, UniProt Q6VAB4 1-458, looked up, variant E231A D301N G348P)
UDP-glycosyltransferase 76G1: B1 UDP-glycosyltransferase 76G1 with A224E, E231A, S266Q, D301N, E342Q, G348P
B16: UGT76G1var11: UGT76G1 variant, mutations F22L_A33G_V310I (protein, UniProt Q6VAB4 1-458, looked up, variant F22L A33G V310I)
UDP-glycosyltransferase 76G1: B1 UDP-glycosyltransferase 76G1 with F22L, A33G, A224E, S266Q, V310I, E342Q
B17: UGT76G1var15: UGT76G1 variant, mutations F41L_L246F_Q425E (protein, UniProt Q6VAB4 1-458, looked up, variant F41L L246F Q425E)
UDP-glycosyltransferase 76G1: B1 UDP-glycosyltransferase 76G1 with F41L, A224E, L246F, S266Q, E342Q, Q425E
B18: UGT76G1var24: UGT76G1 variant, mutations A239I_P272A_Q425E (protein, UniProt Q6VAB4 1-458, looked up, variant A239I P272A Q425E)
UDP-glycosyltransferase 76G1: B1 UDP-glycosyltransferase 76G1 with A224E, A239I, S266Q, P272A, E342Q, Q425E
B19: UGT76G1var26: UGT76G1 variant, mutations S241I_F265L_F377C (protein, UniProt Q6VAB4 1-458, looked up, variant S241I F265L F377C)
UDP-glycosyltransferase 76G1: B1 UDP-glycosyltransferase 76G1 with A224E, S241I, F265L, S266Q, E342Q, F377C

Assay: Directed evolution of UGT76G1, conversion of Rebaudioside D to Rebaudioside M (round 1)
Format: biochemical
Settings: 0.5 mM Rebaudioside D, 2.5 mM UDP-Glucose, 100 μL fresh lysate, 30° C., pH 7.2
From the text: Starting from the amino acid sequence of UGT76G1, as is described in Genbank (AAR06912.1), different mutations at various amino acid positions were identified that could alter the activity of the enzyme for the transformation of Rebaudioside D (Reb D) to Rebaudioside M (Reb M). This list of mutations, designed by DNA2.0 ProteinGPS™ strategy, was subsequently used to synthesize 96 variant genes that contained 3, 4 or 5 of these mutations that were codon-optimized for expression in E. coli. The genes were subcloned in the pET30a+ plasmid and used for transformation of E. coli BL21 (DE3) chemically competent cells. The obtained cells were grown in Petri-dishes on solid LB medium in the presence of Kanamycin. Suitable colonies were selected and allowed to grow in liquid LB medium in tubes. Glycerol was added to the suspension as cryoprotectant and 400 μL aliquots were stored at −20° C. and at −80° C.
These storage aliquots of E. coli BL21(DE3) containing the pET30a+_UGT76G1var plasmids were thawed and added to LBGKP medium (20 g/L Luria Broth Lennox; 50 mM PIPES buffer pH 7.00; 50 mM Phosphate buffer pH 7.00; 2.5 g/L glucose and 50 mg/L of Kanamycine). This culture was allowed to shake in a 96 microtiter plate at 135 rpm at 30° C. for 8 h.
3.95 mL of production medium containing 60 g/L of Overnight Express™ Instant TB medium (Novagen®), 10 g/L of glycerol and 50 mg/L of Kanamycin was inoculated with 50 μL of above described culture. In a 48 deepwell plate the resulting culture was allowed to stir at 20° C. The cultures gave significant growth and a good OD (600 nm; 1 cm) was obtained. After 44 h, the cells were harvested by centrifugation and frozen.
Lysis was performed by addition of Bugbuster® Master mix (Novagen®) to the thawed cells and the lysate was recovered by centrifugation. Activity tests were performed with 100 μL of fresh lysate that was added to a solution of Rebaudioside D (final concentration 0.5 mM), MgCl2 (final concentration 3 mM) and UDP-Glucose (final concentration 2.5 mM) in 50 mM phosphate buffer pH 7.2.
The reaction was allowed to run at 30° C. and samples were taken after 2, 4, 7 and 24 h. to determine conversion and initial rate by HPLC (CAD detection) using the analytical method that was described above for the transformation of Rebaudioside D to Rebaudioside M. The results are depicted in the following table.

Row | Molecule | Conversion Reb D to Reb M after 24 h (%) | initial rate (Reb M area/min)
1 | B1 | 0.5 | 2.3E+04
2 | B2 | 10.5 | 5.5E+06
3 | B3 | 5.3 | 1.5E+06
4 | B4 | 1.8 | 1.9E+06
5 | B5 | 0.7 | 7.2E+05
6 | B6 | 0.3 | −7.7E+02
7 | B7 | 0.9 | 6.3E+04
8 | B8 | 47.8 | 4.1E+07
9 | B9 | 0.2 | −3.3E+04
10 | B10 | 18.6 | 5.8E+06
11 | B11 | 1.9 | 5.0E+05
12 | B12 | 0.5 | 8.7E+04
13 | B13 | 41.9 | 3.3E+07
14 | B14 | 34.4 | 2.4E+07
15 | B15 | 52.0 | 4.9E+07
16 | B16 | 0.4 | 3.8E+04
17 | B17 | 5.6 | 1.5E+06
18 | B18 | 31.0 | 2.1E+07
19 | B19 | 1.8 | 7.5E+05
